Data published in paper PMC11077437, “Scrutiny of chimeric antigen receptor activation by the extracellular domain: experience with single domain antibodies targeting multiple myeloma cells highlights the need for case-by-case optimization” (Frontiers in Immunology, 2024).

Columns and labels:
[1] = molecular target: T1, recombinant human CS1 protein (CS1-(his)C) (Homo sapiens, UniProt Q9NQ25); experiment: SPR; Biacore T200; recombinant CS1 amine-coupled on a CM5 chip; VHH 100 nM to 3.125 nM in HBS pH 7.4, 25°C; association 180 s, dissociation 300 s; fit '1:1 binding with drift and RI2'; n=1; conditions: both partners purified
T1 construct: CS1 (SLAMF7, CD319), human, the extracellular portion; also called huCS1; SLAMF7; source: HEK293-E 253 cells, transiently transfected, purified from the supernatant (IMAC, SEC) by U Protein Express

[2] = molecular target: T2, human CS1 on CS1pos OPM2 multiple myeloma cells (Homo sapiens, OPM2 myeloma cells, UniProt Q9NQ25); experiment: flow cytometry on cells; purified VHH at 200 nM, 1 h at 4°C, on CS1pos OPM2 cells; detected by mouse anti-His IgG1 mAb and APC anti-mouse IgG1 mAb; ΔMFI against the non-targeting control VHH R3B23 at 200 nM; n=1; conditions: one partner purified
T2 construct: CS1 (SLAMF7, CD319), human, as expressed on OPM2 cells; also called cell-expressed CS1; huCS1; source: on CS1pos OPM2 cells (ATCC)

[3] = molecular target: T2, human CS1 on CS1pos OPM2 multiple …; experiment: cell-based or functional assay

Row | Binder | Kd [1] [nM] | koff [1] [s⁻¹] | kon [1] [M⁻¹ s⁻¹] | ΔMFI [VHH] = 200 nM [2] | tumor uptake of the 99mTc-labelled VHH in subcutaneous CS1pos OPM2 tumors in mice, ex vivo at 90 min p.i. (n=3) [3] [% IA/g]
1 | VHH-63 (VHH, 99mTc-labelled on the His tag for the in vivo experiment; source: E. coli WK6 periplasm, purified (IMAC, SEC); not shown: His6, C-terminal, kept) VHH: DVQLVESGGGLVQPGGSLRLSCTVSGLTFSDYDMSWVRQAPGKGPEWVSFINTGGGSTYYDDSVKGRFTISRDNAKNTLYLQMDSLKPEDTALYYCARGDPYSDPKYWGQGTQVTVSS | 9.8 | 0.0019 | 190000 | 3.37 | 1.03
2 | VHH-24 (VHH, source: E. coli WK6 periplasm, purified (IMAC, SEC); not shown: His6, C-terminal, kept) VHH: DVQLVESGGGMVQPGGSLRLSCAASGFTFSSYDMSWVRQAPGKGPEWVSHITTGGGSTHYDDSVKGRFTISRDNAKNTLYLQMNSLKPEDTALYYCARGDPFDSSRDWGQGTQVTVSS | 4.7 | 0.00047 | 100000 | 20.6 | –
3 | VHH-56 (Table 1, the row between 53 and 57) (VHH, this is the second; source: E. coli WK6 periplasm, purified (IMAC, SEC); not shown: His6, C-terminal, kept) VHH: DVQLVESGGGLVQPGGSLRLSCAASGFTFSSYGMSWVRQAPGKGPEWVSHINTGGGSTYYADSVKGRFTISRDNAKNTLYLQMNSLKPEDTALYYCARGDPWGHDPSWGQGTQVTVSS | 36.1 | 0.01 | 279000 | 4.72 | –
4 | VHH-57 (VHH, 99mTc-labelled on the His tag for the in vivo experiment; source: E. coli WK6 periplasm, purified (IMAC, SEC); not shown: His6, C-terminal, kept) VHH: DVQLVESGGGMVQPGGSLRLSCAASGFTFSSYGMSWVRQAPGKGPEWVSHINTGGGSTYYADSVKGRFTISRDNAKNTLYLQMNSLKPEDTALYYCARGDPWGHDPSWGQGTQVTVSS | 24.7 | 0.0085 | 350000 | 4.8 | 0.85
5 | VHH-73 (VHH, 99mTc-labelled on the His tag for the in vivo experiment; source: E. coli WK6 periplasm, purified (IMAC, SEC); not shown: His6, C-terminal, kept) VHH: DVQLVESGGGMVQSGGSLRLSCAASGFTFSSYDMSWVRQAPGKGPEWVSTINTGGSSTYYDDSVKGRFTISRDNAKNTLYLQMNSLKPEDTALYYCARGGPYSRDYWGQGTQVTVSS | 35.8 | 0.00254 | 74400 | 1.35 | 0.52
6 | VHH-17 (VHH, 99mTc-labelled on the His tag for the in vivo experiment; source: E. coli WK6 periplasm, purified (IMAC, SEC); not shown: His6, C-terminal, kept) VHH: DVQLVESGGGLVQPGDSLRLSCTASGFTFSNYPMSWVRQAPGKGPEWISHINTGGGSTYYADSVKGRFTISRDNAKNTLYLQMNSLKPEDTALYYCARGDPFKYSGSYLRGQGTQVTVSS | – | – | – | 13 | 1.05

Continued by falling Kd [1], values first:

Row | Kd [1] [nM] | koff [1] [s⁻¹] | kon [1] [M⁻¹ s⁻¹] | ΔMFI [VHH] = 200 nM [2] | tumor uptake of the 99mTc-labelled VHH in subcutaneous CS1pos OPM2 tumors in mice, ex vivo at 90 min p.i. (n=3) [3] [% IA/g] | Binder
7 | 4.29 | 0.0016 | 372000 | 11.2 | 4.02 | VHH-71 (VHH, 99mTc-labelled on the His tag for the in vivo experiment; source: E. coli WK6 periplasm, purified (IMAC, SEC); not shown: His6, C-terminal, kept) VHH: DVQLVESGGGMVQPGGSLRLSCAASGFTFSSYDMSWVRQAPGKGPEWVSFINTGGGSTYYDDSVKGRFTISRDNAKNTLYLQMNSLKPEDTALYYCARGDPYSDPKYWGQGTQVTVSS
8 | 4 | 0.00048 | 120000 | 7.29 | – | VHH-22 (VHH, source: E. coli WK6 periplasm, purified (IMAC, SEC); not shown: His6, C-terminal, kept) VHH: DVQLVESGGGLVQPGGSLRLSCAASGFTFSSYDMSWVRQAPGKGPEWVSHITTGGGSTHYDDSVKGRFTISRDNAKNTLYLQMNSLKPEDTALYYCARGDPFDSSRDWGQGTQVTVSS
9 | 3.8 | 0.00079 | 210000 | 101 | 6.29 | VHH-6 (VHH, 99mTc-labelled on the His tag for the in vivo experiment; source: E. coli WK6 periplasm, purified (IMAC, SEC); not shown: His6, C-terminal, kept) VHH: DVQLVESGGGLVQAGGSLRLSCAASGRTFEDYFMAWFRQIPGKEREFVAAVGWNTGRGYYTDSVKGRFTISRDSAKNTLYLQMDSLKPEDTAVYYCNAPLQSLDRRLPGPYWGQGTQVTVSS
10 | 2.32 | 0.000979 | 423000 | 11.4 | – | VHH-65 (VHH, source: E. coli WK6 periplasm, purified (IMAC, SEC); not shown: His6, C-terminal, kept) VHH: DVQLVESGGGMVQSGGSLRLSCAASGFTFSSYDMSWVRQAPGKGPEWVSYINTGGGSTYYDDSVKGRFTISRDNAKNTLYLQMNSLKAEDTALYYCARGDPFQRPKYWGQGTQVTVSS
11 | 1.6 | 0.00024 | 150000 | 29.4 | 4.75 | VHH-29 (VHH, 99mTc-labelled on the His tag for the in vivo experiment; source: E. coli WK6 periplasm, purified (IMAC, SEC); not shown: His6, C-terminal, kept) VHH: DVQLVESGGGLVQPGGSLRLSCAASGFTFSSYAMSWVRQAPGKGPEWVSHINTGGGSTYYDDSVKGRFTISRDNAKNTLYLQMNSLKPEDTALYYCARGDPFDEYRYWGQGTQVTVSS
12 | 1.2 | 0.00025 | 210000 | 6.58 | – | VHH-28 (VHH, source: E. coli WK6 periplasm, purified (IMAC, SEC); not shown: His6, C-terminal, kept) VHH: DVQLVESGGGLVQPGGSLRLSCAASGFTLDDYAMSWVRQAPGKGPEWVSYINTGGGSTYYDDSVKGRFTISRDNAKNTLYLQMNSLKAEDTALYYCARGDPFQRPKYWGQGTQVTVSS
13 | 0.81 | 0.0003 | 370000 | 22.1 | 7.5 | VHH-53 (VHH, 99mTc-labelled on the His tag for the in vivo experiment; source: E. coli WK6 periplasm, purified (IMAC, SEC); not shown: His6, C-terminal, kept) VHH: DVQLVESGGGMVQPGGSLRLSCAASGFTFSSYDMSWVRQAPGKGPEWVSYINTGGGSTYYDDSVKGRFTISRDNAKNTLYLQMNSLKAEDTALYYCARGDPFQRPKYWGQGTQVTVSS
14 | 0.6 | 0.00029 | 490000 | 14.3 | – | VHH-51 (VHH, source: E. coli WK6 periplasm, purified (IMAC, SEC); not shown: His6, C-terminal, kept) VHH: DVQLVESGGGMVQPGGSLRLSCAASGFTFSSYDMSWVRLAPGKGPEWVSYINTGGGSTYYDDSVKGRFTISRDNAKNTLYLQMNSLKAEDTALYYCARGDPFQRPKYWGQGTQVTVSS
15 | 0.33 | 8.1e-05 | 250000 | 10.3 | 6.57 | VHH-61 (VHH, 99mTc-labelled on the His tag for the in vivo experiment; source: E. coli WK6 periplasm, purified (IMAC, SEC); not shown: His6, C-terminal, kept) VHH: DVQLVESGGGMVQPGGSLRLSCAASGFTFSSYGMSWVRQAPGKGPEWVSYINVGGGSTYYDDSVKGRFTISRDNAKNTLYLQMNSLKPEDTALYYCARGDPYSDHPQRTWGQGTQVTVSS
